Measured values taken from patent US20170088624A1 (Janssen / Centocor, published 2017).
Changes are numbered by the printed parent chain.

T1: Macaca fascicularis (cyno) CD40 (cCD40) on cells (Macaca fascicularis (cynomolgus), UniProt P25942 21-277 (human entry))
T1 construct: CD40 on cyno mature DCs
T1 chain: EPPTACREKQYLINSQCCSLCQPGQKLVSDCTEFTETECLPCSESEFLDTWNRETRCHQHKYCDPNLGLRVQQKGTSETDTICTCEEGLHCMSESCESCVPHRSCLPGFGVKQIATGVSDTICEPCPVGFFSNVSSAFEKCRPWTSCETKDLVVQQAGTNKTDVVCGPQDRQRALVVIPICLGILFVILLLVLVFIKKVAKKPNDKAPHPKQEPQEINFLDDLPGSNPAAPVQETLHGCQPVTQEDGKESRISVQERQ

T2: cyno CD40 (SPR analyte) (Macaca fascicularis (cynomolgus), UniProt P25942 21-193 (human entry), limits assumed)
T2 construct: also called cCD40-ECD
T2 chain: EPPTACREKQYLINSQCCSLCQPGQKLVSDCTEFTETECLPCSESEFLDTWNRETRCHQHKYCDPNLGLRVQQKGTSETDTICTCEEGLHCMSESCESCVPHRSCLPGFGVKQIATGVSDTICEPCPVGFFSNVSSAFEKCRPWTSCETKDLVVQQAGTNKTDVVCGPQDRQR

B1: C40M102 (antibody, human IgG1, lambda, V domains shown)
VH: EVQLVESGGGLVQPGGSLRLSCAASGFTFSSYAMSWVRQAPGKGLEWVSIINNNVGRTYYADSVKGRFTISRDNSKNTLYLQMNSLRAEDTAVYYCAKEGGDYYYYGMDVWGQGTTVTVSS
VL: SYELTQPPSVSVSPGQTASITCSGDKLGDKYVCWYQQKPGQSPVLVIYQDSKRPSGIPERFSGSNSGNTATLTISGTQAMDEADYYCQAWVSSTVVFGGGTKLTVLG
notes: Variant of C40M18 (VH C40H48, VL C40L70); cloned as IgG1
B2: C40M18 (antibody, human IgG1, lambda, V domains shown)
VH: B1 VH
VL: SYELTQPPSVSVSPGQTASITCSGDKLGDKYVCWYQQKPGQSPVVVIYQDSKRPSGIPERFSGSNSGNTATLTISGTQAMDEAYYYCQAWVSSTVVFGGGTKLTVLG
notes: Full-length IgG1/lambda; from OmniRat (OMT); VH C40H48, VL C40L64
B3: C40M104 (antibody, human IgG1, lambda, V domains shown)
VH: B1 VH
VL: B2 VL with C33S
notes: Variant of C40M18 (VH C40H48, VL C40L68; LCDR1 cysteine mutated); cloned as IgG1
B4: C40M103 (antibody, human IgG1, lambda, V domains shown)
VH: B1 VH
VL: B2 VL with C33S, V45L, Y84D
notes: Variant of C40M18 (VH C40H48, VL C40L69; LCDR1 cysteine mutated); cloned as IgG1

Legend:
[1] = biological target: T3, Full length human CD40 (huCD40) on cells (human, UniProt P25942 21-277); test: cell-based or functional assay
[2] = biological target: T3, Full length human CD40 (huCD40) on cells; test: flow cytometry, human DCs
[3] = biological target: T3, Full length human CD40 (huCD40) on cells; test: flow cytometry, HEK-Blue CD40L cells
[4] = biological target: T3, Full length human CD40 (huCD40) on cells; test: flow cytometry, human B cells
human CD40 (SPR analyte) = biological target: T4, human CD40 (SPR analyte) (human, UniProt P25942 21-193); test: SPR ProteOn XPR36, mAb captured by anti-human IgG Fc, CD40 as analyte, 25 C
T4 construct: also called huCD40-ECD
Experimental: (§1) Affinity measurements were performed using Surface Plasmon Resonance (SPR) using a ProteOn XPR36 system (BioRad). […] Approximately 5000 RU (response units) of mAbs were immobilized. The kinetic experiments were performed at 25° C. in running buffer (DPBS+0.01% P20+100 μg/ml BSA). To perform kinetic experiments, 200 RU of mAbs were captured followed by injections of analytes (human or cyno CD40) at 5 concentrations (in a 4-fold serial dilution). The association phase was monitored for 3 minutes at 50 μL/min, then followed by 15 minutes of buffer flow (dissociation phase). The chip surface was regenerated with two 18 second pulses of 100 mM H₃PO₄ (Sigma, Cat#7961) at 100 μL/min.
(§2) The collected data were processed using ProteOn Manager software. First, the data was corrected for background using inter-spots. Then, double reference subtraction of the data was performed by using the buffer injection for analyte injections. The kinetic analysis of the data was performed using a Langmuir 1:1 binding model. The result for each mAb was reported in the format of Ka (On-rate), Kd (Off-rate) and KD (equilibrium dissociation constant).
The parameters reported in this table were obtained from a 1:1 Langmuir binding model for all samples. Affinity, KD=kd/ka.

[5] = biological target: T3, Full length human CD40 (huCD40) on cells; test: flow cytometry, Raji cells
[6] = biological target: T3, Full length human CD40 (huCD40) on cells; test: cell-based or functional assay; remark: listed apart in the source
[7] = biological target: T1, Macaca fascicularis (cyno) CD40 (cCD40) …; test: flow cytometry, cyno mature DCs
Experimental: (§3) Human monocytes were isolated from either frozen/fresh PBMC using CD14 negative isolation kit per manufacturer's protocol (MACS Miltenyi). Cyno monocytes were isolated from fresh PBMC using CD14 positive isolation kit per manufacturer's protocol (MACS Miltenyi). To generate DCs, monocytes were cultured for 5 days in complete media RPMI (Invitrogen) in the presence of 100 ng/ml human GM-CSF and human IL-4 (Peprotech) and media was replenished every 2 days. On day 5, DCs were stimulated with 100 ng/ml LPS (Sigma) for 24 hours. Cells were then stained with each of the tested CD40 antibody at different concentration in flow cytometry buffer (PBS+1% FBS; BD Bioscience) in 100 μl volume for 30 minutes on ice followed with two washes with flow buffer. Cells were then stained for additional 30 minutes on ice with APC-conjugated anti human IgG (Jackson ImmunoResearch) at the recommended dilution 1:100 and washed twice with flow buffer. Cells were analyzed for percent positive and Mean Fluorescence Intensity (MFI) to determine the antibody binding using Fortessa (BD Bioscience).
(§4) The experiments were conducted using assays described above. 20 antibodies were characterized further based on their binding to human DCs, cyno DCs, Raji cells and HEK-Blue™ CD40L cells.

[8] = biological target: T3, Full length human CD40 (huCD40) on cells; test: flow cytometry, HEK-Blue CD40L cells; remark: listed apart in the source
cyno CD40 (SPR analyte) = biological target: T2, cyno CD40 (SPR analyte); test: SPR ProteOn XPR36, mAb captured by anti-human IgG Fc, cyno CD40 as analyte, 25 C
Experimental: as §1, §2

[9] = biological target: T3, Full length human CD40 (huCD40) on cells; test: cell-based or functional assay; remark: listed apart in the source
[10] = biological target: T3, Full length human CD40 (huCD40) on cells; test: flow cytometry, human mature DCs
Experimental: as §3, §4

T3 sequence (P25942 21-277): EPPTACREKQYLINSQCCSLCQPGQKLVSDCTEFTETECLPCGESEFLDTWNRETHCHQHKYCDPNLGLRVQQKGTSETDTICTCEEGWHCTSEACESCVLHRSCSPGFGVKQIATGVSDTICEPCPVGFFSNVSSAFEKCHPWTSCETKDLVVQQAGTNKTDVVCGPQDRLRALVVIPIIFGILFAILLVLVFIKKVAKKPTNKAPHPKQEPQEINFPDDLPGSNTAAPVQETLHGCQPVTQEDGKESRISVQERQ

Row | Binder | EC50, Human B cells (CD83) [1] | EC50, Human DC (HLA-DR) [1] | EC50, agonistic activity on HEK-Blue™ CD40L cells (NF-κB/SEAP) [1] | EC50 [2] | EC50 [3] | EC50 [4] | also measured
1 | B1 | 0.0239 µg/mL | 0.367 µg/mL | 0.0751 µg/mL | 0.438 µg/mL | 0.162 µg/mL | 0.159 µg/mL | 
2 | B2 | 0.0226 µg/mL | 0.166 µg/mL | 0.0696 µg/mL | 0.267 µg/mL | 0.15 µg/mL | 0.11 µg/mL | Kd (human CD40 (SPR analyte)): 0.151 nM; koff (human CD40 (SPR analyte)): 0.000162 s⁻¹; kon (human CD40 (SPR analyte)): 1.07e+06 M⁻¹ s⁻¹; EC50 [5]: 0.073 µg/mL; DC EC50, CD80 surface expression, with cross-linker [6]: 0.0523 µg/mL; DC EC50, CD83 surface expression, with cross-linker [6]: 0.0478 µg/mL; DC EC50, CD86 surface expression, with cross-linker [6]: 0.0302 µg/mL; DC EC50, HLA-DR surface expression, with cross-linker [6]: 0.0105 µg/mL; EC50 [7]: 0.0389 µg/mL; EC50 [8]: 0.126 µg/mL; Kd (cyno CD40 (SPR analyte)): 0.0712 nM; koff (cyno CD40 (SPR analyte)): 9.41e-05 s⁻¹; kon (cyno CD40 (SPR analyte)): 1.32e+06 M⁻¹ s⁻¹; B cells EC50, CD23 surface expression, with cross-linker [9]: 0.306 µg/mL; B cells EC50, CD80 surface expression, with cross-linker [9]: 0.0481 µg/mL; B cells EC50, CD83 surface expression, with cross-linker [9]: 0.0624 µg/mL; B cells EC50, CD86 surface expression, with cross-linker [9]: 0.00873 µg/mL; B cells EC50, HLA-DR surface expression, with cross-linker [9]: 0.0239 µg/mL; EC50 [10]: 0.352 µg/mL
3 | B3 | 0.0167 µg/mL | 0.166 µg/mL | 0.0308 µg/mL | 0.253 µg/mL | 0.177 µg/mL | 0.11 µg/mL | 
4 | B4 | 0.00479 µg/mL | 0.388 µg/mL | 0.00274 µg/mL | 0.143 µg/mL | 0.112 µg/mL | 0.075 µg/mL | 
